The numbers were not newly measured in PMC3076547, which cites them from elsewhere.

As a reminder, the Kd is the constant that tells how readily two partners part at equilibrium.

This series has as its target Nef (Human immunodeficiency virus 1) (UniProt P04324).

In the case of Hck SH3 (from UniProt P08631), the Kd was 250 nM.
